Two molecules from US6500940 (SALK INSTITUTE FOR BIOLOGICAL STUDIES, dated 2002) can be followed below.

One assay addresses human Fas (human) (UniProt P25445). In words: cell-based or functional assay.
The target in another assay is T1, human FADD (human, UniProt Q13158 1-208, limits assumed).
T1 construct: also called MORT-1
T1 sequence (looked up): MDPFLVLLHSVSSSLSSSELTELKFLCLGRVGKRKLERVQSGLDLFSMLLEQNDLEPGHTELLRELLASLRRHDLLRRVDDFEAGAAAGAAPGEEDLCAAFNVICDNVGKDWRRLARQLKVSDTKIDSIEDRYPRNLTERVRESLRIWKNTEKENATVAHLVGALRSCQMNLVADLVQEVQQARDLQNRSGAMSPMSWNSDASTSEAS
In words: co-immunoprecipitation and immunoblot after transient transfection. The text has this: The interaction of LFG with components of the Fas signaling pathway was investigated. Fas and LFG can be co-immunoprecipitated following transient transfection.

human Fas (human), sequence (P25445 26-335): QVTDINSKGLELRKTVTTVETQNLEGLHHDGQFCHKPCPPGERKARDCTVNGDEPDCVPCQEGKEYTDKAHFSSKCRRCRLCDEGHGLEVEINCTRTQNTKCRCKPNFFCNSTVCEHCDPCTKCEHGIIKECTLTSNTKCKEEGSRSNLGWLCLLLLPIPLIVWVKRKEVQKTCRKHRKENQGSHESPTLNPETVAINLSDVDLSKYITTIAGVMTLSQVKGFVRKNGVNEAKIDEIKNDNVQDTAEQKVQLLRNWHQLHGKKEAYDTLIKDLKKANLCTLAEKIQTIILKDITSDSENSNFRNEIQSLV

For the molecule “mouse anti-human Fas agonistic antibody (CH11)”, in the assay with human Fas (human), the cell survival of HeLa cells 72 hr after treatment with CH11 was found to be 17%.

B1: amino-terminal myc epitope-tagged LFG (myc-LFG) (other, not shown: small tags and cut ends)
chain: MTRGKLSVANKAPGTEGQQQVHGEKKEAPAVPSAPPSYEEATSGEGMKAGAFPPAPTAVPLHPSWAYVDPSSSSSYDNGFPPETMSSSPLSAGMTKKVRRVFVRKVYTILLIQLLVTLAVVALFTFCDPCQGLCSGQPGWYWASYAVFFATYLTLACCSGPRRHFPWNLILLTVFTLSMAYLTGMLSSYYNTTSVLLCLGITALVCLSVTVFSFQTKFDFTSCQGVLFVLLMTLFFSGLILAILLPFQYVPWLHAVYAALGAGVFTLFLALDTQLLMGNRRHSLSPEEYIFGALNIYLDIIYIFTFFLQLFGTNRE
notes: Expressed from an expression vector by transient transfection (HeLa, 293 cells) and found by immunoprecipitation and immunoblot; also called lifeguard
Take B1: the binding result with human FADD is reported as “no binding”.
